The record followed here is paper PMC8630071, “The NUCKS1-SKP2-p21/p27 axis controls S phase entry”.

For data set [1], the target named is T1, NUCKS1, dephosphorylated (UniProt Q9H1E3 1-243).
T1 sequence: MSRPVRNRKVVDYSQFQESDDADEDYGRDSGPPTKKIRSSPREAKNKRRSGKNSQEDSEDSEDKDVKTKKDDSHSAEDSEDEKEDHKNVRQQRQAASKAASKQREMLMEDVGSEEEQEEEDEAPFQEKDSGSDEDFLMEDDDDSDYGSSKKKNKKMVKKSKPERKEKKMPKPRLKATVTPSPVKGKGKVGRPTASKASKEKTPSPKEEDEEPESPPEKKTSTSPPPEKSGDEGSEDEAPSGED
The data set is described as follows: EMSA; lambda phosphatase treated; 10.24-2500 nM protein, 25 nM probe; text: almost 10-fold; 20 mM Tris-HCl pH 7.5, 100 mM KCl, 0.2% NP-40, 20% glycerol, 2 mM DTT, 50 ng (pure protein) or 1 ug (extract) salmon sperm DNA, 25 nM probe, 15 min at 37 C; native 6% PAGE. The following applies: protein: recombinant; tags: His6; label: IRDye-800; blunt. On the technique in general: A gel shift assay detects complexes by their altered migration in electrophoresis.

Data set [2] deals with T1, NUCKS1, dephosphorylated. Briefly: competition EMSA; 100x unlabelled competitor against labelled WT probe; not outcompeted; 20 mM Tris-HCl pH 7.5, 100 mM KCl, 0.2% NP-40, 20% glycerol, 2 mM DTT, 50 ng (pure protein) or 1 ug (extract) salmon sperm DNA, 25 nM probe, 15 min at 37 C; native 6% PAGE. The conditions noted are these: protein: recombinant; tags: His6; blunt.

Residue numbers refer to the chain shown, from its start.

B1: SKP2 promoter WT probe (dsDNA)
DNA 1: GCCGACCAGTCCCGCTCCCGCGGGGGGTTGTGGGTATCTCGAAGGCGGGTAAAGCTGCA
DNA 2: TGCAGCTTTACCCGCCTTCGAGATACCCACAACCCCCCGCGGGAGCGGGACTGGTCGGC
For the molecule B1, in data set [1], the binding signal was ~10 fold higher affinity than phosphorylated NUCKS1.

B2: SKP2 promoter mutant probe (no GC-box), unlabelled competitor (dsDNA)
DNA 1: B1 DNA 1 with G44A, G45A, C46A, G47A, G48A, G49A
DNA 2: B1 DNA 2 with C11T, C12T, C13T, G14T, C15T, C16T
As for B2, the binding result in data set [2] is “no binding”.
